The record followed here is the RNAGym collection of RNA variant scans (doi:10.1073/pnas.2313332121).

Variants at the floor of the assay were thinned out. Some results are limits rather than exact numbers.

B1: TPR 5TU (parent)
chain: GGAUCUUCUCGAUCUAACAAAAAAGACAAAUCUGCCACAAAGCUUGAGAGCAUCUUCGGAUGCAGAGGCGGCAGCCUUCGGUGGCGCGAUAGCGCCAACGUUCUCAACUAUGACACGCAAAACGCGUGCUCCGUUGAAUGGAGUUUAUCAUG

This data set covers variants of B1. The data set can be described thus: polymerase ribozyme fitness, log enrichment relative to wild type (log ratio); higher = more active; in vitro selection for triplet polymerase activity. In outline: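 Fitness measures genotype enrichment against wild-type enrichment on a logarithmic scale, with inverse-variance-weighted averaging of replicates. The logarithm is base 2, and genotypes were kept only with ≥10 input reads and ≥1 read per output in Illumina sequencing. The sequenced libraries came from one triplicate in vitro selection round, including frozen incubation at −7 °C, of PCR-built, transcribed mutant libraries of each subunit of a heterodimeric triplet polymerase ribozyme.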
Consider A49C A60G G67U C85U C93G A97G, for which the “polymerase ribozyme fitness (log ratio)” value is not above -4.2.

On to A47G C87U U101C, for which the “polymerase ribozyme fitness (log ratio)” value worked out at 0.535.

For the variant G48A A52G C116U, the “polymerase ribozyme fitness (log ratio)” value is -0.319. As to G48C A91U G143C, the “polymerase ribozyme fitness (log ratio)” value was not above -4.2. In the case of A47C U55A C87G A91G A150G, the “polymerase ribozyme fitness (log ratio)” value is not above -4.2. Regarding G50A U55A, the “polymerase ribozyme fitness (log ratio)” value was -1.34. As for A49G G68U G133A, the “polymerase ribozyme fitness (log ratio)” value was not above -4.2. Consider G50A C57G G81A C85U C116U, for which the “polymerase ribozyme fitness (log ratio)” value was -2.31. G50C G71A C95U G117C G143A: the “polymerase ribozyme fitness (log ratio)” value was not above -4.2.

Turning to A47C U61A, the “polymerase ribozyme fitness (log ratio)” value was -3.21. Consider G48U A73G, for which the “polymerase ribozyme fitness (log ratio)” value was -1.15. With A47U A49C C51U C93A, the “polymerase ribozyme fitness (log ratio)” value was not above -4.2. With G50A C108A G124U U148G, the “polymerase ribozyme fitness (log ratio)” value is not above -4.2. For G50A U61A G81U G83C A91U U104G G143A, the “polymerase ribozyme fitness (log ratio)” value was not above -4.2. For A49C U56A C69A C99A the value was not above -4.2. For the variant A47U G83U A122U, the “polymerase ribozyme fitness (log ratio)” value was -0.574. With A47C U151G G152A, the “polymerase ribozyme fitness (log ratio)” value is -4.19.

Consider G50C C123U, for which the “polymerase ribozyme fitness (log ratio)” value is -2.4. With G48C G80A C85U A120U A137G, the “polymerase ribozyme fitness (log ratio)” value is not above -4.2. As for A47G C54A, the “polymerase ribozyme fitness (log ratio)” value was -1.65. As to G50A U55A A97C A147U U148A, the “polymerase ribozyme fitness (log ratio)” value is not above -4.2. As for G48U U56A C87G U90C, the “polymerase ribozyme fitness (log ratio)” value was -4.07.

With A49C U109G, the “polymerase ribozyme fitness (log ratio)” value was not above -4.2.

For the variant A47U C93G, the “polymerase ribozyme fitness (log ratio)” value was -3.23. G48A G136C: the “polymerase ribozyme fitness (log ratio)” value is -2.57. On to A47C U56A U78A U90G, for which the “polymerase ribozyme fitness (log ratio)” value was not above -4.2. A49G U53C A98U A121G: the “polymerase ribozyme fitness (log ratio)” value is -1.87. Consider A49U G84U A97G C114G, for which the “polymerase ribozyme fitness (log ratio)” value was not above -4.2.

Take G50A A98U G126A: the “polymerase ribozyme fitness (log ratio)” value is -1.26. With A47C U56C G68A C125U, the “polymerase ribozyme fitness (log ratio)” value is -4.09. As for A47G C57U U109G, the “polymerase ribozyme fitness (log ratio)” value was -0.869.

Consider A47U G83C A142G, for which the “polymerase ribozyme fitness (log ratio)” value was -2.42. G50A G136U U144G U146C: the “polymerase ribozyme fitness (log ratio)” value is -2.38. For the variant A49U G50A C85G C116G A121U, the “polymerase ribozyme fitness (log ratio)” value was -1.16. For G50A C116A the value was -0.537; for G50A A52C C72G A97C C99A U139C G143A, not above -4.2. As to A49C A52U A60G G94A A97G, the “polymerase ribozyme fitness (log ratio)” value was -3.63. For A49U G59A A122U, the “polymerase ribozyme fitness (log ratio)” value is -0.783. The figure for A47C C87U C105A A119C is -1.51; for A49U C51U A147C it is -0.373; for A49C C51U C95U C96A G112A G126A it is not above -4.2. As for G48C U55A C93G, the “polymerase ribozyme fitness (log ratio)” value was -3.87.

On to G48C C118U, for which the “polymerase ribozyme fitness (log ratio)” value was -0.625. As for A47U U61A, the “polymerase ribozyme fitness (log ratio)” value was -1.41. Consider A49G U53A, for which the “polymerase ribozyme fitness (log ratio)” value was -1.54. On to A49C G65U G84U C96U A121U C125G, for which the “polymerase ribozyme fitness (log ratio)” value is not above -4.2. With G48C G62C C108G A137U U146A, the “polymerase ribozyme fitness (log ratio)” value was not above -4.2. With A47U G58C U61G G81A, the “polymerase ribozyme fitness (log ratio)” value is -3.65. Consider G48C U61A U77A C125U U144A, for which the “polymerase ribozyme fitness (log ratio)” value is not above -4.2. With A47U G81C C85G G86U C95U A106C G143A, the “polymerase ribozyme fitness (log ratio)” value is not above -4.2. For the variant G50A G84A A142C, the “polymerase ribozyme fitness (log ratio)” value was -3.15.

In the case of G50C A52G U77A G128U A142U, the “polymerase ribozyme fitness (log ratio)” value is not above -4.2. Turning to G48A G84C G100C, the “polymerase ribozyme fitness (log ratio)” value was not above -4.2. For the variant G50C A52C U77C C79A U101G A115U, the “polymerase ribozyme fitness (log ratio)” value was not above -4.2.

On to G50C C95A, for which the “polymerase ribozyme fitness (log ratio)” value was -2.7. For the variant A47U C85G, the “polymerase ribozyme fitness (log ratio)” value is -2.65. As to A47U C85A, the “polymerase ribozyme fitness (log ratio)” value is -2.21. Regarding G50A C79A, the “polymerase ribozyme fitness (log ratio)” value was not above -4.2. Turning to A49C G71A, the “polymerase ribozyme fitness (log ratio)” value is not above -4.2. Take A49U A150U: the “polymerase ribozyme fitness (log ratio)” value is -0.0151. Consider G48A U56A U109G, for which the “polymerase ribozyme fitness (log ratio)” value was -1.39.

Take A49U A66G G84A C87U A98G: the “polymerase ribozyme fitness (log ratio)” value was not above -4.2.

In the case of G50A C125A, the “polymerase ribozyme fitness (log ratio)” value was -1.79. With A49C U145G, the “polymerase ribozyme fitness (log ratio)” value is not above -4.2. As to A49U C85U, the “polymerase ribozyme fitness (log ratio)” value was -2.25.

Turning to A49U C85A, the “polymerase ribozyme fitness (log ratio)” value is -1.86. On to A49U G141A, for which the “polymerase ribozyme fitness (log ratio)” value was -1.34.

Consider G50C A89U G94U C96U A115G, for which the “polymerase ribozyme fitness (log ratio)” value was not above -4.2. The figure for A47G U55A G84U G128A is not above -4.2; for G50A C95A U111A U135A it is not above -4.2. In the case of A49G G58C, the “polymerase ribozyme fitness (log ratio)” value is -0.689.

With A47C U61C C96U, the “polymerase ribozyme fitness (log ratio)” value was -3.35. Turning to A49C U55G C76U C87A C99U C105U A120U, the “polymerase ribozyme fitness (log ratio)” value is not above -4.2. In the case of A49U C69U, the “polymerase ribozyme fitness (log ratio)” value is -1.86. Turning to A47C G59A G62C G67C G68C C99U A107U C114A A121G, the “polymerase ribozyme fitness (log ratio)” value was not above -4.2. For the variant A47C G92A A107G, the “polymerase ribozyme fitness (log ratio)” value was not above -4.2. As to G50C G58A, the “polymerase ribozyme fitness (log ratio)” value was -1.56. The figure for G48C A73U U101C U104A A115G G124U is not above -4.2. On to G48C C79A G86U C96U G124A, for which the “polymerase ribozyme fitness (log ratio)” value was not above -4.2.

As for A49C A73G C93U U127A, the “polymerase ribozyme fitness (log ratio)” value was not above -4.2. Turning to G48C G83U, the “polymerase ribozyme fitness (log ratio)” value was -1.41.

Turning to A49G C63A G71U G83U A122U A150U, the “polymerase ribozyme fitness (log ratio)” value was not above -4.2. On to A49U C93A, for which the “polymerase ribozyme fitness (log ratio)” value is -3.3. For the variant G50A C54U G80A U82G G88A G92A C93G U145A, the “polymerase ribozyme fitness (log ratio)” value is not above -4.2.
